From patent US20160046713A1 (INNATE PHARMA, published 2016)

T1: KIR3DL2 domain 1 construct (V5-tagged, CD24-GPI anchored) on HEK-293T/17 cells (human, UniProt P43630 139-238)
T1 construct: also called pcDNA3.1/KIR3DL2 domain 1; KIR3DL2 extracellular domain 1
T1 sequence: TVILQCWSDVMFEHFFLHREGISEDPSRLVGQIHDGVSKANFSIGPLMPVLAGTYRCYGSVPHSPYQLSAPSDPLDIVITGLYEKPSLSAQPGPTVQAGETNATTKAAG


Experiments:
[1] = target: T2, human KIR3DL1 (CD158e1) on cells (human, UniProt P43629 22-444); test: two colour immunofluorescence on polyclonal NK cell populations and clones
T2 construct: Present on donor NK and T cells
From the text: mAbs were generated by immunizing 5 week old Balb C mice with polyclonal IL-2 activated NK population. […] The reactivity of AZ158 was further analyzed on NK cell populations and clones in combination with additional antibodies, including EB6 ([…], CD158a), GL183 (anti-p58.2/50.2, CD158b), PAX180 (anti-p50.3) and FES172 (anti-p50.3), as well as Z27 and Q66, and it was observed that AZ158 reacted with the same cell subset stained by the anti-KIR3DL1 and anti-KIR3DL2 mAbs. Similar results were also observed using a panel of NK cell clones expressing different HLA class I specific NK receptors.

[2] = target: T3, human KIR3DS1 (CD158e2) on cells (human, UniProt P43629 22-381); test: flow cytometry with AZ158-PE on healthy donor PBMC gated on CD3+ T lymphocytes
T3 construct: Present on donor NK and T cells

[3] = target: T1, KIR3DL2 domain 1 construct (V5-tagged, …); test: flow cytometry on transfected HEK-293T/17 cells, goat anti-human-PE detection
Protocol: (§1) Transfections were performed using 5 μg of the different pcDNA3.1/KIR3DL2 domain 0, pcDNA3.1/KIR3DL2 domain 1 or pcDNA3.1/KIR3DL2 domain 2 constructs using Lipofectamine 2000 according to manufacturer instructions. To ensure DNA purity for transfection, Maxi-prep endotoxin free kit from Qiagen was used. The Lipofectamine/DNA ratio used was fixed at 2/1. Cells were harvested 48 hours after transfection for flow cytometry experiments.
(§2) Cells were harvested and stained in PBS 1×/BSA 0.2%/EDTA 2 mM buffer during 1H at 4° C. using 5 μg/ml of chiAZ158 antibody. After two washes in staining buffer, cells were stained for 30 min at 4° C. with anti-V5 antibody FITC (0.1 μl per well) and goat anti-human (H+L)-PE antibodies (1/200). After two washes, stainings were acquired on a BD FACS Canto II and analyzed using the FlowJo software.
(§3) Results are shown in FIGS. 7-10, with V5-FITC indicated on the y-axis and chAZ158-GAH-PE on the x-axis. […] No binding of the chiAZ158 antibody could be detected on KIR3DL2 domain 1 (FIG. 9) or domain 2 (FIG. 10). Therefore, it can be concluded from this flow cytometry experiment that the chAZ158 antibody binds to the KIR3DL2 extracellular domain 0 but not to domains 1 and 2.

[4] = target: T4, KIR3DL2 domain 2 construct (V5-tagged, CD24-GPI anchored) on HEK-293T/17 cells (human, UniProt P43630 239-340); test: as above
T4 construct: also called pcDNA3.1/KIR3DL2 domain 2; KIR3DL2 extracellular domain 2
Protocol: as §1, §2, §3

[5] = target: T5, KIR3DL1 recombinant protein (R&D systems) (Homo sapiens (Human), UniProt P43629 22-340); test: SPR (Biacore T100), receptor immobilized on chip, antibody injected at 12 µg/ml
T5 construct: Bought protein; also called KIR3DL1 chip; immobilized KIR3DL1
Protocol: The binding of chimeric AZ158 (“chAZ158”, see Example 3) to KIR3DL2 and KIR3DL1 recombinant proteins (R&D systems) was analyzed by Surface Plasmon Resonance (SPR) using a Biacore T100 apparatus. […] Antibody was injected at a constant concentration of 12 μg/ml over the KIR3DL2 and KIR3DL1 flow-cells. Background signals were subtracted online by co-injecting onto the reference flow cell (dextran alone). Sensorgrams are representative of three independent experiments.

T5 sequence (P43629 22-340 limits assumed): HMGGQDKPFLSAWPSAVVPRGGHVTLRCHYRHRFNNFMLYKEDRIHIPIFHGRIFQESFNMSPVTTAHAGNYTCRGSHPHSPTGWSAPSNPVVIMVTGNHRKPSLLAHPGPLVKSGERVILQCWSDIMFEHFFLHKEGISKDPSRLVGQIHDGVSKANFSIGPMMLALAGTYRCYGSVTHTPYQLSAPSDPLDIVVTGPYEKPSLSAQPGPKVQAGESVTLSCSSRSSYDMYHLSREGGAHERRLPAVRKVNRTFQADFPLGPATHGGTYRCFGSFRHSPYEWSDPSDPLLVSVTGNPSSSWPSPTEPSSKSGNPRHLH
T3 sequence (P43629 other isoform, or with tags, fused parts or gaps limits assumed): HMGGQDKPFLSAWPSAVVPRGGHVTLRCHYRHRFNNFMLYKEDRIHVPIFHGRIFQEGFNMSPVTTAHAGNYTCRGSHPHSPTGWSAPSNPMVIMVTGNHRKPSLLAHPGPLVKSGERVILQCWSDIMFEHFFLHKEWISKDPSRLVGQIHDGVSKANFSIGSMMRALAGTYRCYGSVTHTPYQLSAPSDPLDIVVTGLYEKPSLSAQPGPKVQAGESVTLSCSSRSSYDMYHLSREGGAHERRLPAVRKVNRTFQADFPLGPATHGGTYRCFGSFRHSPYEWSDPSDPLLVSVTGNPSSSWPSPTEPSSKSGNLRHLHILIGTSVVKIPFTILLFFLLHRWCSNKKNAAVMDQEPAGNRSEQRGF
T4 sequence (P43630 other isoform, or with tags, fused parts or gaps limits assumed): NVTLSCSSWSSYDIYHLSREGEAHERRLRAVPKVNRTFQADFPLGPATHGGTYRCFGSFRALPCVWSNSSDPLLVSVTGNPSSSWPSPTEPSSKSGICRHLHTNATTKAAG
T2 sequence (P43629 22-444 limits assumed): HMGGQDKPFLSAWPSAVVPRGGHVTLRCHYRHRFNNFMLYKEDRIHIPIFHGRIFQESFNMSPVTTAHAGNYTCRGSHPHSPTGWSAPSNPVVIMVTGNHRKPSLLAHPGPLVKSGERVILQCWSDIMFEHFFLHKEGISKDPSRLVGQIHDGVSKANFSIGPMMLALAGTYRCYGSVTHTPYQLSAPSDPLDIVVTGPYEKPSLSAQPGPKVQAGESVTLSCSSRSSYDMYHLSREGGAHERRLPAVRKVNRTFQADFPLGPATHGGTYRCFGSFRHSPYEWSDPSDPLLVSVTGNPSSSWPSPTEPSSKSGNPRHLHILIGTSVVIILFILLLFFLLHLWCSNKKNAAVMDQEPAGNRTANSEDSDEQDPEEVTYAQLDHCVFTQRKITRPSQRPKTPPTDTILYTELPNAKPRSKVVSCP

binding result [1]	binding result [2]	binding result [3]	binding result [4]	binding result [5]	Binder
binds	binds	–	–	–	AZ158 (murine monoclonal antibody) (antibody, mouse IgG2b, V domains shown, also called mAb AZ158; AZ158-PE) VH: QVQLKESGPGLVAPSQSLSITCTVSGFSLTSFGVHWVRQPPGKGLEWLGVIWAGGSTNYNSALMSRLSISKDNSKSQVFLKMNSLQNDDTAMYYCARGNSNHYVSSFYYFDYWGQGTTLTVSS VL: DIQMTQSPSSLSASLGGKVTITCKASQDINKYIAWYQHKPGKGPRLLIHYTSTLQPGIPSRFSGSGSGRDYSFSISNLEPEDITTYYCLQYDNLWTFGGGTKLEIK
–	–	no binding (tested: 5 µg/ml)	no binding (tested: 5 µg/ml)	binds	chAZ158 (chimeric AZ158, human IgG1-kappa, with the MKV6-derived kappa chain) (antibody, V domains shown, also called chiAZ158; AZ158 chimeric antibody) VH: QVQLKESGPGLVAPSQSLSITCTVSGFSLTSFGVHWVRQPPGKGLEWLGVIWAGGSTNYNSALMSRLSISKDNSKSQVFLKMNSLQNDDTAMYYCARGNSNHYVSSFYYFDYWGQGTTLTVSS VL: DIQMTQSPSSLSASLGGKVTITCKASQDINKYIAWYQHKPGKGPRLLIHYTSTLQPGIPSRFSGSGSGRDYSFSISNLEPEDITTYYCLQYDNLWTFGGGTKLEIKR
